Test results published in publication PMC10514464 (iScience, 2023).
Where no end group is shown, it is not given here. The star is where a group is joined. FITC = O=C1OC2(c3ccc(O)cc3Oc3cc(O)ccc32)c2ccc(NC(=S)*)cc21

T1: FITC-labeled pepHePTP
T1 peptide: {FITC}-RLQERRGSNVALMLDV

B1: doubly-phosphorylated wild-type rat ERK2 oxidized with H2O2 (sulfenylated on C159) (enzyme)
chain: MAAAAAAGPEMVRGQVFDVGPRYTNLSYIGEGAYGMVCSAYDNLNKVRVAIKKISPFEHQTYCQRTLREIKILLRFRHENIIGINDIIRAPTIEQMKDVYIVQDLMETDLYKLLKTQHLSNDHICYFLYQILRGLKYIHSANVLHRDLKPSNLLLNTTCDLKICDFGLARVADPDHDHTGFLTEYVATRWYRAPEIMLNSKGYTKSIDIWSVGCILAEMLSNRPIFPGKHYLDQLNHILGILGSPSQEDLNCIINLKARNYLLSLPHKNKVPWNRLFPNADSKALDLLDKMLTFNPHKRIEVEQALAHPYLEQYYDPSDEPIAEAPFKFDMELDDLPKEKLKELIFEETARFQPGYRS

How the values were obtained:
[1] = target: B1; test: SPR
FITC-labeled pepHePTP = target: T1, FITC-labeled pepHePTP; test: fluorescence polarisation

| Binder | Kd [1] [µM] | fold increase in KD,app against untreated ERK2 (FITC-labeled pepHePTP) [fold] |
| --- | --- | --- |
| Ac-FQRKTLQRRNLKGLNLNL-NH2 [Lig-D peptide] | 58 |  |
| B1 |  | ~100 |
